Results as given in patent US11833164B2, “Methods of treating Fabry disease in patients having a mutation in the GLA gene” (Amicus Therapeutics, Inc., priority 2019, dated 2023).
Positions count from the first letter of the chain named. Numbers in names are those of the source.

B1: N298D (protein)
chain: MQLRNPELHLGCALALRFLALVSWDIPGARALDNGLARTPTMGWLHWERFMCNLDCQEEPDSCISEKLFMEMAELMVSEGWKDAGYEYLCIDDCWMAPQRDSEGRLQADPQRFPHGIRQLANYVHSKGLKLGIYADVGNKTCAGFPGSFGYYDIDAQTFADWGVDLLKFDGCYCDSLENLADGYKHMSLALNRTGRSIVYSCEWPLYMWPFQKPNYTEIRQYCNHWRNFADIDDSWKSIKSILDWTSFNQERIVDVAGPGGWNDPDMLVIGNFGLSWNQQVTQMALWAIMAAPLFMSDDLRHISPQAKALLQDKDVIAINQDPLGKQGYQLRQGDNFEVWERPLSGLAWAVAMINRQEIGGPRSYTIAVASLGKGVACNPACFITQLLPVKRKLGFYEWTSRLRSHINPTGTVLLQLENTMQMSLKDLL
B2: H302N (protein)
chain: B1 chain with D298N, H302N
B3: H302D (protein)
chain: B1 chain with D298N, H302D
B4: A307G (protein)
chain: B1 chain with D298N, A307G
B5: D299N (protein)
chain: B1 chain with D298N, D299N
B6: N298I (protein)
chain: B1 chain with D298I
B7: H302Y (protein)
chain: B1 chain with D298N, H302Y
B8: I303S (protein)
chain: B1 chain with D298N, I303S
B9: A307D (protein)
chain: B1 chain with D298N, A307D
B10: D299H (protein)
chain: B1 chain with D298N, D299H
B11: Q306P (protein)
chain: B1 chain with D298N, Q306P
B12: Q306L (protein)
chain: B1 chain with D298N, Q306L
B13: L300V (protein)
chain: B1 chain with D298N, L300V
B14: H302L (protein)
chain: B1 chain with D298N, H302L
B15: L300I (protein)
chain: B1 chain with D298N, L300I
B16: S304I (protein)
chain: B1 chain with D298N, S304I
B17: N298T (protein)
chain: B1 chain with D298T
B18: A307V (protein)
chain: B1 chain with D298N, A307V
B19: Q306E (protein)
chain: B1 chain with D298N, Q306E
B20: A307P (protein)
chain: B1 chain with D298N, A307P
B21: A307S (protein)
chain: B1 chain with D298N, A307S

system: mutant form of α-Gal A expressed in HEK-293 cells; experiment: HEK assay (GLP HEK / Migalastat Amenability Assay): α-Gal A activity in lysates of transiently transfected HEK-293 cells incubated with or without 10 μM migalastat; format: cell-based, human; conditions: 10 μM migalastat versus baseline
In short: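 HEK-293 cells transiently transfected with mutant α-Gal A and incubated with or without 10 μM migalastat; lysate activity given as nmol free 4-MU released per mg protein per hour. Values are mean±SEM.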

| Molecule | Absolute increase (% WT) | Relative increase |
| --- | --- | --- |
| B1 | 21.7 | 9.6 |
| B2 | 30.2 | 1.3 |
| B3 | 25.8 | 1.3 |
| B4 | 23.4 | 1.5 |
| B5 | 7.8 | 1.2 |
| B6 | 34.9 | 4.7 |
| B7 | 25.3 | 1.4 |
| B8 | 3.8 | – |
| B9 | 35.9 | 1.3 |
| B10 | 22.1 | 23.5 |
| B11 | 30.0 | 1.5 |
| B12 | 19.6 | 1.3 |
| B13 | 14.0 | 13.2 |
| B14 | 24.6 | 1.4 |
| B15 | 34.4 | 2.6 |
| B16 | 13.9 | 1.5 |
| B17 | 14.2 | 1.2 |
| B18 | 34.7 | 2.3 |
| B19 | 19.7 | 1.2 |
| B20 | 12.3 | 1.4 |
| B21 | 27.7 | 1.3 |

same assay, conditions: absence of migalastat; percentage of baseline wild-type α-Gal A activity; mean ± SEM

| Molecule | Baseline α-Gal A activity (% WT) |
| --- | --- |
| B1 | 2.5 ± 0.2 |
| B2 | 91.2 ± 4.3 |
| B3 | 95.1 ± 5.8 |
| B4 | 52.9 ± 2.5 |
| B5 | 29.2 ± 4.7 |
| B6 | 9.2 ± 0.7 |
| B7 | 59 ± 3.5 |
| B9 | 126 ± 5.7 |
| B10 | 1 ± 0.1 |
| B11 | 57.4 ± 2.8 |
| B12 | 56.9 ± 4 |
| B13 | 1.3 ± 0.2 |
| B14 | 60.7 ± 5.1 |
| B15 | 20.7 ± 0.9 |
| B16 | 30.6 ± 1.4 |
| B17 | 61.2 ± 4.7 |
| B18 | 27.5 ± 2 |
| B19 | 82 ± 2.8 |
| B20 | 32.8 ± 1.7 |
| B21 | 85.9 ± 4.5 |

same assay, conditions: lysates of HEK-293 cells transiently transfected with the mutant form, incubated 5 days in absence of migalastat; mean ± SEM

| Molecule | Baseline α-Gal A activity [nmol/mg/h] | Baseline α-Gal A activity (nmol/mg/hr) |
| --- | --- | --- |
| B1 | 795 ± 56 | – |
| B2 | 31958 ± 1777 | – |
| B3 | 32677 ± 1437 | – |
| B4 | 17871 ± 1029 | – |
| B5 | 11973 ± 1961 | – |
| B6 | 2942 ± 262 | – |
| B7 | 22554 ± 1372 | – |
| B8 | – | BLD (“BLD” indicates that the mean α-Gal A activity was below the limit of detection (<142 nmol/mg/hr)) |
| B9 | 42522 ± 2430 | – |
| B10 | 358 ± 36 | – |
| B11 | 19933 ± 1648 | – |
| B12 | 19792 ± 1899 | – |
| B13 | 406 ± 48 | – |
| B14 | 24188 ± 1797 | – |
| B15 | 7328 ± 448 | – |
| B16 | 11675 ± 939 | – |
| B17 | 20581 ± 1736 | – |
| B18 | 11478 ± 1200 | – |
| B19 | 31745 ± 2212 | – |
| B20 | 11388 ± 905 | – |
| B21 | 29300 ± 2037 | – |

same assay, conditions: lysates of HEK-293 cells transiently transfected with the mutant form, incubated 5 days with 10 μM migalastat; mean ± SEM

| Molecule | 10 μM migalastat α-Gal A activity [nmol/mg/h] |
| --- | --- |
| B1 | 7645 ± 388 |
| B2 | 42296 ± 2028 |
| B3 | 41716 ± 1847 |
| B4 | 26053 ± 1631 |
| B5 | 14668 ± 809 |
| B6 | 13906 ± 535 |
| B7 | 31688 ± 1241 |
| B8 | 1496 ± 117 |
| B9 | 54502 ± 3031 |
| B10 | 8424 ± 875 |
| B11 | 29495 ± 1671 |
| B12 | 26515 ± 1960 |
| B13 | 5354 ± 203 |
| B14 | 34251 ± 1760 |
| B15 | 19317 ± 757 |
| B16 | 17257 ± 1837 |
| B17 | 25249 ± 1705 |
| B18 | 25989 ± 2015 |
| B19 | 39019 ± 2405 |
| B20 | 15572 ± 1124 |
| B21 | 38558 ± 2274 |

same assay, conditions: with 10 μM migalastat, 5 days; percentage of baseline wild-type α-Gal A activity; mean ± SEM

| Molecule | 10 μM migalastat α-Gal A activity (% WT) |
| --- | --- |
| B1 | 24.2 ± 1.2 |
| B2 | 121.4 ± 6.2 |
| B3 | 120.8 ± 6.6 |
| B4 | 76.3 ± 3.1 |
| B5 | 37.1 ± 2.9 |
| B6 | 44.1 ± 1.8 |
| B7 | 84.2 ± 5.2 |
| B8 | 3.8 ± 0.3 |
| B9 | 161.9 ± 8.6 |
| B10 | 23.1 ± 2.4 |
| B11 | 87.5 ± 4.8 |
| B12 | 76.4 ± 3.4 |
| B13 | 15.3 ± 0.6 |
| B14 | 85.3 ± 4.7 |
| B15 | 55.1 ± 2 |
| B16 | 44.6 ± 2.4 |
| B17 | 75.4 ± 4.3 |
| B18 | 62.2 ± 3.3 |
| B19 | 101.7 ± 4.2 |
| B20 | 45.2 ± 2.1 |
| B21 | 113.6 ± 5.2 |
